In patent EP2670776B1:

Molecular target: Knob F241R/F243S (knob Fc with F241R/F243S mutations) (human) [IgG part: P0DOX5]
Experiment: size exclusion chromatography, against wild-type knob Fc

Knob F241R/F243S (knob Fc with F241R/F243S mutations) (from UniProt P0DOX5 223-449)
Reduction in homodimer content: 64.5%
